B1: Recombinant soluble protein comprising the entire DDR2 extracellular region, fused to the Fc-sequence of human IgG2 (Fc fusion)
chain: KAQVNPAICRYPLGMSGGQIPDEDITASSQWSESTAAKYGRLDSEEGDGAWCPEIPVEPDDLKEFLQIDLHTLHFITLVGTQGRHAGGHGIEFAPMYKINYSRDGTRWISWRNRHGKQVLDGNSNPYDIFLKDLEPPIVARFVRFIPVTDHSMNVCMRVELYGCVWLDGLVSYNAPAGQQFVLPGGSIIYLNDSVYDGAVGYSMTEGLGQLTDGVSGLDDFTQTHEYHVWPGYDYVGWRNESATNGYIEIMFEFDRIRNFTTMKVHCNNMFAKGVKIFKEVQCYFRSEASEWEPNAISFPLVLDDVNPSARFVTVPLHHRMASAIKCQYHFADTWMMFSEITFQSDAAMYNNSEALPTSPMAPTTYDPMLKVDDSNTR

Assays:
[1] = target: Diaz-ES-VWFIIINle (diazirine-bearing end-stapled triple-helical peptide of three VWFIIINle strands)
[2] = target: bovine Achilles tendon collagen type I film, 100% EDC/NHS crosslinked (bovine) (UniProt P02453)
[3] = target: III-23, GPC(GPP)5GPOGPSGPRGQOGVMGFOGPKGNDGAO(GPP)5GPC; assay: ELISA; control wells coated with III-23 or BSA; VWF-A3-GST at 5 μg/ml in PBS 0.1% BSA, room temperature; anti-GST HRP, A450
[4] = target: bovine Achilles tendon collagen type I film, 100% EDC/NHS crosslinked (bovine) (UniProt P02453); assay: ELISA; collagen films in 96-well plates, EDC/NHS crosslinked 0% to 100%, blocked with PBS 5% BSA; VWF A3-GST at 5 μg/ml in PBS 0.1% BSA, room temperature (2 h in the methods, 1 h in the legend); anti-GST HRP, TMB, A450
[5] = target: bovine Achilles tendon collagen type I film, 50% EDC/NHS crosslinked (bovine) (UniProt P02453); assay: as above
[6] = target: bovine Achilles tendon collagen type I, non-crosslinked film (bovine) (UniProt P02453); assay: as above
[7] = target: Diaz-ES-VWFIIINle (diazirine-bearing end-stapled triple-helical peptide of three VWFIIINle strands); assay: ELISA; 100% EDC/NHS crosslinked collagen films in 96-well plates, without peptide or incubated with peptide at 5 μg/ml, left in the dark (no UV), washed with citrate buffer pH 3 and PBS; VWF-A3-GST at 5 μg/ml in PBS 0.1% BSA, room temperature; anti-GST HRP, A450
[8] = target: bovine Achilles tendon collagen type I film, 100% EDC/NHS crosslinked (bovine) (UniProt P02453); assay: as above
[9] = target: Diaz-ES-VWFIIINle (diazirine-bearing end-stapled triple-helical peptide of three VWFIIINle strands); assay: ELISA; 100% EDC/NHS crosslinked collagen films in 96-well plates, without peptide or incubated with peptide at 5 μg/ml for 30 min, then UV (365 nm) for 5 min, washed with citrate buffer pH 3 and PBS; VWF-A3-GST at 5 μg/ml in PBS 0.1% BSA, room temperature; anti-GST HRP, A450
[10] = target: bovine Achilles tendon collagen type I film, 100% EDC/NHS crosslinked (bovine) (UniProt P02453); assay: as above
[11] = target: All other peptide treatments; assay: ELISA; as a6 and a7, the three other peptide treatments taken together (VWFIIINle with UV, VWFIIINle without UV, Diaz-ES-VWFIIINle without UV) on 100% crosslinked films; DDR2-Fc at 1 μg/ml; A450
[12] = target: bovine Achilles tendon collagen type I film, 100% EDC/NHS crosslinked (bovine) (UniProt P02453); assay: ELISA; collagen films in 96-well plates, EDC/NHS crosslinked 0% to 100%, blocked with PBS 5% BSA; DDR2-Fc at 1 μg/ml in PBS 0.1% BSA with 0.05% Tween-20, 2 h, room temperature; anti-Fc HRP, TMB, A370 read before addition of sulfuric acid
[13] = target: bovine Achilles tendon collagen type I, non-crosslinked film (bovine) (UniProt P02453); assay: as above
[14] = target: bovine Achilles tendon collagen type I film, 100% EDC/NHS crosslinked (bovine) (UniProt P02453); assay: ELISA; 100% EDC/NHS crosslinked collagen films in 96-well plates, without peptide or incubated with peptide at 5 μg/ml, left in the dark (no UV), washed with citrate buffer pH 3 and PBS; DDR2-Fc at 1 μg/ml in PBS 0.1% BSA and 0.05% Tween-20, 2 h, room temperature; anti-Fc HRP, A450
[15] = target: Diaz-ES-VWFIIINle (diazirine-bearing end-stapled triple-helical peptide of three VWFIIINle strands); assay: ELISA; 100% EDC/NHS crosslinked collagen films in 96-well plates, without peptide or incubated with peptide at 5 μg/ml for 30 min, then UV (365 nm) for 5 min, washed with citrate buffer pH 3 and PBS; DDR2-Fc at 1 μg/ml in PBS 0.1% BSA and 0.05% Tween-20, 2 h, room temperature; anti-Fc HRP, A450
[16] = target: bovine Achilles tendon collagen type I film, 100% EDC/NHS crosslinked (bovine) (UniProt P02453); assay: as above

| Molecule | platelet surface coverage; human whole blood (full-length plasma VWF) perfused at 1000 s^-1 over 100% crosslinked films with Diaz-ES-VWFIIINle after UV [1] [%] | platelet surface coverage; human whole blood (full-length plasma VWF) perfused at 1000 s^-1 over 100% crosslinked films without peptide [2] [%] | A450 [3] [absorbance] | A450 [4] [absorbance] | A450 [5] [absorbance] | A450 [6] [absorbance] | A450 [7] [absorbance] | A450 [8] [absorbance] | A450 [9] [absorbance] | A450 [10] [absorbance] | A450 [11] [absorbance] | A370 [12] [absorbance] | A370 [13] [absorbance] | A450 [14] [absorbance] | A450 [15] [absorbance] | A450 [16] [absorbance] |
| --- | --- | --- | --- | --- | --- | --- | --- | --- | --- | --- | --- | --- | --- | --- | --- | --- |
| recombinant GST-tagged human VWF-A3 domain (from UniProt P04275 23-2813) (domain or fragment) | 42.9 | 5.6 | 1.42 | 0.13 | 0.12 | 0.57 | 1.25 | 0.26 | 1.8 | 0.24 |  |  |  |  |  |  |
| B1 |  |  |  |  |  |  |  |  |  |  | 1.16 to 1.43 | 0.18 | 0.32 | 0.61 | 1.9 | 0.61 |
